Assay results as given in US20250177557A1, “METHODS OF PRODUCING MICROBUBBLE DRUG CONJUGATES, VIRAL GENE THERAPY MICROBUBBLE CONJUGATES AND TARGETED MICROBUBBLES” (priority 2022, published 2025).

System: human SHSY-5Y cells
Test: Neuroprotection of differentiated SHSY-5Y cells against parkinsonian neurotoxins (CFDA cell viability)
Assay type: cell-based
Settings: pre-treatment, rhGDNF 50 ng/ml, CDNF-MDCs 25-250 ng/ml
Protocol: Neuroprotection was tested in the well-established neuronal model of human SHSY-5Y cells (Lopes, F. M.,. et al. (2010) Brain Res. 1337, 85-94) treated with parkinsonian neurotoxins. Human SHSY-5Y cells were grown in 24 well dishes and differentiated into neuron-like cells by treatment with 10 μM retinoic acid (RA) for 7 days (FIG. 8A).
Cell viability was quantified by the CFDA assay as described previously (Sandhu, J. K., et al. (2009) Neurobiol. Dis. 33, 405-414.).
Recombinant human GDNF at 50 ng/ml was used as a positive control.

B1: rhGDNF: Recombinant human GDNF, positive control (protein, UniProt P39905 78-211, looked up)
Glial cell line-derived …: SPDKQMAVLPRRERNRQAAAANPENSRGKGRRGQRGKNRGCVLTAIHLNVTDLGLGYETKEELIFRYCSGSCDAAETTYDKILKNLSRNRRLVSDKVGQACCRPIAFDDDLSFLDDNLVYHILRKHSAKRCGCI
For B1, the “Neuroprotection against thapsigargin (cell viability)” value (1.0 μM thapsigargin ~16 h) was “protected from cell death” and the “Neuroprotection against MPP+ (cell viability)” value (1.0 mM MPP+ ~16 h) was “protected from cell death”.
